Blank lines part the entries; values can stand above or below the binder they belong to.
What was measured:
Dicer [1] = biological target: T1, Dicer (human, UniProt Q9UPY3 1-1922); assay: native gel or EMSA; dsRNA A (0.5 uM) with 0, 0.5 or 1 uM protein or complex in 20 mM HEPES (pH 7.5), 300 mM KCl, 5% glycerol, 1 mM TCEP, on ice 45 min, 6% native PAGE, SYBR-Gold; the shift by the Dicer-dsRBP complex is compared with that by the dsRBP alone; conditions: both partners purified
T1 construct: Dicer, human endoribonuclease; also called endonuclease Dicer
T1 sequence (Q9UPY3 whole entry): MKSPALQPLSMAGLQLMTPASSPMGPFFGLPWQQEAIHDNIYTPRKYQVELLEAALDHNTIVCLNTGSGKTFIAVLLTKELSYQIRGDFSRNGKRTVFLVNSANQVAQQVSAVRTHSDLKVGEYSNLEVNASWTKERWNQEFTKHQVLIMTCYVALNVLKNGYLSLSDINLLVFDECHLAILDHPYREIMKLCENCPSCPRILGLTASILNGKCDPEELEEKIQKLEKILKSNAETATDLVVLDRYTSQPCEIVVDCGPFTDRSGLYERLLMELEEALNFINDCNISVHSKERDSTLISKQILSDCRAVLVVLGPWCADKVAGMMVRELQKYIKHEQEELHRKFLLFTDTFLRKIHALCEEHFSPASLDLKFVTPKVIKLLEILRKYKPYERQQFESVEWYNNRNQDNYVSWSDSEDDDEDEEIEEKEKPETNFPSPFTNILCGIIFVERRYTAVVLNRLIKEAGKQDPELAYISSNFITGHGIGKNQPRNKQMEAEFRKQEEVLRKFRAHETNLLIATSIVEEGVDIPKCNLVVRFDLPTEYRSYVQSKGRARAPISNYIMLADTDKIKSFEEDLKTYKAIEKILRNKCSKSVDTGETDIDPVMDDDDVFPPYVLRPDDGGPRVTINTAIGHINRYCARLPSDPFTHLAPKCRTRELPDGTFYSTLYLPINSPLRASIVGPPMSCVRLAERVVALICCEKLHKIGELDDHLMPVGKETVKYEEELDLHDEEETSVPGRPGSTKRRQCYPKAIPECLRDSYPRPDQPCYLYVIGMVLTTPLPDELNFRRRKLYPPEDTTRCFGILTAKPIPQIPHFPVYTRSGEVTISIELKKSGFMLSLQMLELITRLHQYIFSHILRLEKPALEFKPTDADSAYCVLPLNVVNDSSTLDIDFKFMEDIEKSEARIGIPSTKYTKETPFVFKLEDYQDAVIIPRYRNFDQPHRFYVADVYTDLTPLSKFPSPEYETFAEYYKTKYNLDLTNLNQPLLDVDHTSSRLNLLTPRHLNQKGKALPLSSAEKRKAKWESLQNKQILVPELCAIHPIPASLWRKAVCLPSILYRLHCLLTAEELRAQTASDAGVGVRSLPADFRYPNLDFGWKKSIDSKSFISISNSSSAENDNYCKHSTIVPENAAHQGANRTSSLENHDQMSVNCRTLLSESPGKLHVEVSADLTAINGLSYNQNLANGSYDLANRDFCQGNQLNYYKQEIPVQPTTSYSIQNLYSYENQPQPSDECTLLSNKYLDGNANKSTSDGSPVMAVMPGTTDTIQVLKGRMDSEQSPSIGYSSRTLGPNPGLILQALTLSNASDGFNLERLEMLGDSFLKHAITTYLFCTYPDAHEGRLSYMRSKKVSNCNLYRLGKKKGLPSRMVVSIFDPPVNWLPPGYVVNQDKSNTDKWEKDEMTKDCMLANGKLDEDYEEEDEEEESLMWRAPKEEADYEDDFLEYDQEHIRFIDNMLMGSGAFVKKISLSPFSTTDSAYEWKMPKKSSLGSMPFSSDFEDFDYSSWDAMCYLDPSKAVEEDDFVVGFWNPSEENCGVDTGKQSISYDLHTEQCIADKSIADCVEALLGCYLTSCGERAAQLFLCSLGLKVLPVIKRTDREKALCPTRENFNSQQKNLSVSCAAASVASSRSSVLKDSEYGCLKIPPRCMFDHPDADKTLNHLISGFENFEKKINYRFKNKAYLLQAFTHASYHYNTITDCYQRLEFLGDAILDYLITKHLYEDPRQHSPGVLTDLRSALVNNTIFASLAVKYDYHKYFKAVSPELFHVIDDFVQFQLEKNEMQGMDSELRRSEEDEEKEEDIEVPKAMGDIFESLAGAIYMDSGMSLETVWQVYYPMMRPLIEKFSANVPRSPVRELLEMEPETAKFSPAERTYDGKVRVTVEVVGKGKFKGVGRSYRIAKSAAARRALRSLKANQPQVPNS

Dicer [2] = biological target: T1, Dicer; assay: SEC; gel filtration column chromatography of Dicer with the dsRBP or chimeric dsRBP, reconstituted from purified proteins; conditions: both partners purified
Dicer;PACT = Dicer;PACT (human;human, UniProt Q9UPY3;O75569 1-1922;1-313, |); assay: EMSA; 0.5 uM dsRNA, up to 1 uM complex; shift distinct from PACT alone; Fig 1B: 20 mM HEPES pH 7.5, 300 mM KCl, 5% glycerol, 1 mM TCEP, on ice 45 min, 6% native PAGE; Fig S5: 20 mM Tris-HCl pH 6.5, 1.5 mM MgCl2, 25 mM NaCl, 1 mM DTT, 1% glycerol, on ice 60 min; conditions: protein: recombinant;recombinant; tags: ;His6-MBP removed by TEV; copies: 1;1
Chain of Dicer;PACT (Q9UPY3 whole entry, one chain of several): as the sequence (Q9UPY3 whole entry) above

Dicer;TRBP = Dicer;TRBP (human;human, UniProt Q9UPY3;Q15633 1-1922;1-366, |); assay: EMSA; 0.5 uM dsRNA, up to 1 uM complex; Fig 1B: 20 mM HEPES pH 7.5, 300 mM KCl, 5% glycerol, 1 mM TCEP, on ice 45 min, 6% native PAGE; Fig S5: 20 mM Tris-HCl pH 6.5, 1.5 mM MgCl2, 25 mM NaCl, 1 mM DTT, 1% glycerol, on ice 60 min; conditions: protein: recombinant;recombinant; copies: 1;1
Chain of Dicer;TRBP (Q9UPY3 whole entry, one chain of several): as the sequence (Q9UPY3 whole entry) above

Dicer [3] = biological target: Dicer (human, UniProt Q9UPY3 1-1922); assay: EMSA; 0.5 uM dsRNA, up to 1 uM protein; Fig 1B: 20 mM HEPES pH 7.5, 300 mM KCl, 5% glycerol, 1 mM TCEP, on ice 45 min, 6% native PAGE; Fig S5: 20 mM Tris-HCl pH 6.5, 1.5 mM MgCl2, 25 mM NaCl, 1 mM DTT, 1% glycerol, on ice 60 min; conditions: protein: recombinant
Target sequence in this assay (Q9UPY3 whole entry): as above

TRBP = biological target: T2, TRBP (human, UniProt Q15633 1-366); assay: as above; conditions: protein: recombinant
T2 sequence: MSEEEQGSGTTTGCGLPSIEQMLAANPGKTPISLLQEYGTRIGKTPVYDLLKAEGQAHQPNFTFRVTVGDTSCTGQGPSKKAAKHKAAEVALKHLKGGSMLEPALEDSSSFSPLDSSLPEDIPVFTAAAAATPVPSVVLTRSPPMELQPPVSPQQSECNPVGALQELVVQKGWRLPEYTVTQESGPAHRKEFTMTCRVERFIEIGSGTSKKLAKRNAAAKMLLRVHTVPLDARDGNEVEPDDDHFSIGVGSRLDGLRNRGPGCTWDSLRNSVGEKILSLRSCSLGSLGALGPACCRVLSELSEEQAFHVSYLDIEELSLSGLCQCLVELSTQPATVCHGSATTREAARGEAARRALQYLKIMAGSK

B1: trans-activation response RNA-binding protein (TRBP) (natural protein, human, UniProt Q15633 1-366, looked up)
chain: T2 sequence
notes: called full-length; the chimeras' limits run to residue 366; removal of His6-MBP after TEV cleavage on a Ni-NTA column is told by comparison with the PACT purification
- binding result (Dicer [1]): binds

B3: dsRNA A (dsRNA)
RNA 1: UGGCCUUGGGCAACGGUAAUU
RNA 2: UUACCGUUGCCCAAGGCCAUU
- binding result (Dicer;PACT): binds
- binding result (Dicer;TRBP): binds
- binding result (Dicer [3]): no binding
- binding result (TRBP): binds

Further lines, results first:

- binding result (Dicer [2]): binds
B2: protein activator of PKR (PACT) (natural protein, human, UniProt O75569 1-313, looked up)
chain: MSQSRHRAEAPPLEREDSGTFSLGKMITAKPGKTPIQVLHEYGMKTKNIPVYECERSDVQIHVPTFTFRVTVGDITCTGEGTSKKLAKHRAAEAAINILKANASICFAVPDPLMPDPSKQPKNQLNPIGSLQELAIHHGWRLPEYTLSQEGGPAHKREYTTICRLESFMETGKGASKKQAKRNAAEKFLAKFSNISPENHISLTNVVGHSLGCTWHSLRNSPGEKINLLKRSLLSIPNTDYIQLLSEIAKEQGFNITYLDIDELSANGQYQCLAELSTSPITVCHGSGISCGNAQSDAAHNALQYLKIIAERK
notes: called full-length; the chimeras' limits run to residue 313; source: purified (TEV cleavage, HiTrap-SP, Superdex-200)

- binding result (Dicer [2]): binds
B4: T12P3 (other, human, UniProt Q15633 1-232, looked up)
chain: MSEEEQGSGTTTGCGLPSIEQMLAANPGKTPISLLQEYGTRIGKTPVYDLLKAEGQAHQPNFTFRVTVGDTSCTGQGPSKKAAKHKAAEVALKHLKGGSMLEPALEDSSSFSPLDSSLPEDIPVFTAAAAATPVPSVVLTRSPPMELQPPVSPQQSECNPVGALQELVVQKGWRLPEYTVTQESGPAHRKEFTMTCRVERFIEIGSGTSKKLAKRNAAAKMLLRVHTVPLDAPENHISLTNVVGHSLGCTWHSLRNSPGEKINLLKRSLLSIPNTDYIQLLSEIAKEQGFNITYLDIDELSANGQYQCLAELSTSPITVCHGSGISCGNAQSDAAHNALQYLKIIAERK
notes: TRBP, human, residues 1-232 (dsRBD1, linker, dsRBD2); PACT, human, residues 197-313 (with dsRBD3); purified by the PACT method, which removes His6-MBP by TEV cleavage; also called chimeric protein T12P3; source: purified (HiTrap-Q flow-through, HiTrap-SP, then as PACT)
